Data from the supplement of paper PMC12636428.

Tested on: Saccharomyces cerevisiae
Assay: transcriptional activation domain activity (GFP:mCherry ratio, weighted mean of sorted bins, harmonized to initial dataset scale) (arbitrary fluorescence ratio units); higher = stronger transcriptional activation
Conditions: beta-estradiol 1 µM; induction time 4 h
Summary of the method: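 After a 1:5 dilution into SC with 1 uM beta-estradiol and 4 hours at 30 °C, yeast diploids carrying a GFP reporter and URA3-integrated barcoded tiles were sorted into 8 bins by GFP:mCherry ratio. The tiles were fused to an estradiol-inducible synthetic transcription factor. Barcodes were sequenced, tiles below 50 reads were discarded, and activation activity was taken as the read-weighted mean of bin median fluorescence, averaged across barcodes and linearly mapped onto the initial dataset scale.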

| Sequence | transcriptional activation domain activity |
| --- | --- |
| GSTNRSGDGSSDDERRKSRRRGRRRKASVSSSSSGGSKSSSTTSRSRSRSRSR | 7680 |
| GSTPGKTASTGRGTAGGKGVAAGSKAPASTRGGGGGTAGGGGKAGGANTKTAV | 56000 |
| GSTQAVDLIAYGGYKFVGVITTLISGFEFLHLGRSIYTMVFLYSFLSNAFFLL | 63600 |
| GSTSSSNEEKKEQSITSESKAAGGLFGSIKSNEPPTSAFGSLSTTEAKPAASP | 32800 |
| GSVGDELVCVVKRARPIAPSSASNAIKVRRGDVRRAVIVRTKKAVRRPDGRLI | 29900 |
| GSVKKKLASSSRTGQACDRCKVRKIRCDPRPEGCSPCAQNRTPCKTTDRITGR | 41900 |
| GSWMILRILLHQLLDSVQYIPEYKDIAALRYRGPTYYFQELQKAFYHVLDAVP | 65200 |
| GSYCISLVNVLVAFGVVLLHASTSGLWHWNPPFRAPNSVVFIYLLSNIFLITV | 55000 |
| GSYTSAARGGKAVQEAIRAMIERKGLELRQKQRKLRQDVVIVMHHATALPGTS | 56300 |
| GTAHHHDPNDPKRPRACEACRGLKVRCEPDPTNPNPDGPCKRCAKAGRACLVT | < 6570 |
| GTAIEGLVIRFYIRKYEDSNNNNLEQNKTGQVRVSSPRAYLRIVGYTWVLAWF | 38700 |
| GTCGKLGLLCRSMALYSPEVTVVTVSGGGGSSRWVEYLELALRTTGRVAVLLT | 64500 |
| GTDDAEAREKTGAADPSADPASRKRRADDGEGDARKRIRTEGGSASAAAASSS | 14100 |
| GTEYEIGRPSDEEVTITRMLDKVLRRSDAVDKESLCIVAGQRVWHLRLTLHCL | 68500 |
| GTGDEQTGSGEKGKKKKASRACYHCQKAHLTCDDARPCGRCVKRNLASTCTDG | 40600 |
| GTGEEEEETTKHIVRKRGGGRGGRGKQESEQEWESEEEEEGTGEEEETTKQRT | 39000 |
| GTGGLSELRDAFDDSKASYGYARVTYSNDKESQREKFILVVWIGSGCKVMRKG | 36600 |
| GTGRSSDDVSSGAGSEEVSQTLDEKMAEEQKGRQRLNNIIQQFYIKGALVIVG | 67400 |
| GTKKEEKGEKDKTETKKSKKSSKHNKVTSKKSSSKKSTRKAAISDADSSDDSS | 35100 |
| GTLNAQVTICEYSSTGQPLNGQGGCYNLHPVFNWIHHCIMSIFLVFMIAWLPL | 78500 |
| GTRAPAVHRDQRGPVDSQERAGEDVVRRERSVGQGRRAVRGARLVYAGAAALE | 51500 |

| Sequence | transcriptional activation domain activity |
| --- | --- |
| GTSGTSVASRPSITPRAFGSSRSSRPSARSGSPSSRTAPSTPAPASSTRRTRP | 31100 |
| GVCLKVGITKPKKPNSAERKTARVRLSTGRVVTAYIPGEGHNVQQHSVVLVRG | 39500 |
| GVCLKVGITRPKKPNSGERKTARVRLSSGRMITAYVPGEGHNIQQHSVVLVRG | 51900 |
| GVDDADHEEEEEEEEEEEQEGARYGALMGGLGVAQGAMRILAPAVAGGVYAVS | 67300 |
| GVDERRAIVESFVKRVTHKYLRHCDPSEPVLLLSSLVIKLIFARFWLLVYRPQ | 44900 |
| GVDGDGAADADADEDDEEGEEDEDDEGGGAGRKRKKARMEAAPKAKPKPAPAK | 27700 |
| GVDPATKEKKVPSDVLEEPPTLKESLQVLYKYCILCFNLNRKRVVLQFIASFL | 73300 |
| GVEGQGKRTRAGKKRRIVLRERQRKRVKEEEERKKKGEEKEGREREKRVRRNR | 46700 |
| GVEKTAEKPSEEPAEEAPEKKAEPTTEEPEPEAAKPKARGGRPKKVIAAPKED | 38300 |
| GVENQVDFHHNEKHKLMLLKALGYRVLADINKVSVVMPAALVGTVVLTLRGRG | 44500 |
| GVERNHLSVFRPVSFSFSSWFMLLLFFCFRGVELVILFPDCSWFLCIPLFYSF | 67700 |
| GVEWWNVTSPEDSTYDPASLPLDVWDPLLPHDTGFSEIDITQCFFDPFFMPFL | 160000 |
| GVFCLALWVPATGFELVSFFALLVGAIFGVFWMVAGLKNLQSSLSISWLVIAL | 65200 |
| GVFILCRKRIVYMDGWRVWGVLIFRLFTWLFLGWLKIARGLGLGPALMMFLWL | 46200 |
| GVFVLLEQYCGINFYGLRKHGGTASMCPLGGTLRSWAYRFVAISYPPKRMVNG | 27600 |
| GVLALSPCDDTTLKATMGVIEELLIYLYFAGQMRELFYWACRVVNLSVHHGHA | 69100 |
| GVLFCLSCLSFINLSFFLGGGCLFSFSFLFPALVWRYAFFLLVLDYRRILNIP | 36900 |
| GVLMCYYSRSHNFDVAKRHFQRILNLLPLLKSTPNIFPLYGLIFSTMGLLVLI | 62600 |
| GVLRLFQICLPCFAAVDFVQGFVRYLYHIPNFNGVYETKMWVWVGLIICLIFK | 53900 |
| GVMIVRKRLLIAIATVYGSPDRGLRRIIQSIGKVLWRHGLLSDQFYSAGEIFS | 69800 |
| GVNAIGRRSSFQDVEAGKGGLIVPLRHLPPRGEDAGLVLQVHLNRAVSKLARM | 65200 |

| Sequence | transcriptional activation domain activity |
| --- | --- |
| GVPIWRLTGETWNWKEIVDRHPLTGKVVRRRSLKWGMACYRFWWVVWGCLFYI | 59300 |
| GVRKDRQQMYFILATNSMIDLGFVVASFVPLVLLWIGGMGYLRVVWRVTLGLG | 51400 |
| GVSMGSGYFFMVWLTMWLYSELNFWVIDGVCSLVEMQWMPFFILSWIICQVAG | 50800 |
| GVVWCGVIFGFVAFHILCLFDVFFSFFFFFFEFWFWFFGFVYLNGLGWVGVGW | 40100 |
| GWAFGTKNEDGFQLFDCTGEALGVILRLSHILRHVTTFWRLRTAVDLLLQAQC | 58900 |
| GWFGAVFGVLYFFLFIFGITSVYIGFSFLLYSICLSHGTVWHPLCQFHFFYFI | 28100 |
| GWFYFNVLRHAELMVFTIFSPEHVTIWALRQHSVARLIRALCPEKLSMSHGFL | 32400 |
| GWKGRGKSGGRGRKTSGGGLKTERKSGGVSKASGGGGSSSRGGRGAGAGAGAG | 14100 |
| GWKYIILAACDVEGNFLVVKVGLFSTTILLVMTLRYQAYQYTNLLSCMLLDAW | 43000 |
| GWNTHRAQTYTQLAKHLQSHGFHCKQYLGWLCHNIVAIEVYWMMIHLKRILPL | 56300 |
| GWVVILSSRCRIKTSVSRERLKMDVFWLIESIGLTVEYWRIVWDLRATYHFLR | 33000 |
| GYCLKIRDRFFIFLWHCWVRGIVVTPFGSKIISGLSFESIPQSSCVLIQNVTI | 28400 |
| GYDDTVVLDGCYAAAIRWKSFAYVSTAVRISWKRYLMRFLLRISPWLTIIFSV | 57600 |
| GYIGLSSGYFWSGLLYNVSITISLYCLAMFWVCLHDDLVPFRPVPKFLVIKLV | 53000 |
| GYIVFLSMVMIHTDSRLDHLGKRSVLSEENSKNSWQLLVLFLHQLSTYWLLPK | 57900 |
| GYLHHILKLFDCAFGISYPQLHHVLEVRTRALLLAGLNLTFVLDGPLPMWKAA | 54900 |
| GYRIVKMLGTVYGITVRSRNWAAGLGMVLKSVVGGELRWFTNLLYTARNDAIG | 48300 |
| GYVYVSGFLALVIVVSTYFYMLSRLVLLVLPFLYLRSLSPAAYHVVHWTSFIP | 61000 |
| HAARALSLPSISPQFFVLLHKLSFPLLPFWLPMYFLLCITLPSSWLVLLYLFL | 37800 |
| HAEPGTGWACVKHTSDCTAVKKASGIPGRNFHRRPKYSVVVSAGERTWKAKQC | 52400 |
| HAGTMESHPHTNIHEELKEFLSGDLIEAEDNAKLMFGDDNSNPADYLLEFGSG | 72500 |

| Sequence | transcriptional activation domain activity |
| --- | --- |
| HALRTFVYKAAIIPISLFLVHFRRAFSCLCFCALSGFPRCHLTLLSIMFIFSL | 53700 |
| HAQGEGEYKAAQAEGYAEGTQDRFGGKKDAVIGALTGDRKQEASGTLIPRLKL | 34400 |
| HAQPRAGDSTRPQESASSSDRPADASGEGGGISKKKKAKRSAAKEEGAGAEDP | 37300 |
| HARLKIIETATKAWSGALDADIKTKMAQSTAGFSGADVKVRAPHPLWDIHRPL | 37200 |
| HASAAPTATPAAPTVEKAKPKSREASPAKPKSPERRRPASPAPAAAVPEPVAA | 32900 |
| HAVTYWMCLELTIHLFYTFNRRSTLYFWSILVSICSIISMTILLELIIFVYPL | 56200 |
| HCCRLLFLLFLFLFFFLLLFICFFLRLLRLLFPHRNTNLTRPIADPIIPIIPP | 46900 |
| HCIEAGIKLVSQFIDMYKEFSPGGKLCQVCWMLTNFSMNDFLLGVMVLCLVIH | 56200 |
| HCLTFHQTSKLTHILLTYRQSILVTVYSHLLLLDHSSQVWWRWMNIFFTLVIW | 69500 |
| HCNGLLGNADLFEDPYQDELTSELHVLVTERLVNSWKDTILQQLCSCQDTTLS | 83700 |
| HDDSFIESEEWLSKFIMDSQIDNDLKLNINHFNDIGFNNLHPQNPTTHSEPRN | 117000 |
| HDLLVDSLRLVMELLKAPGGLSVHALTAHLNILSFTVRLLDLCLDMALETPHH | 84900 |
| HEDQKLREDQEARLRAVEEFEAVQMGLSVKTGASARVIGRQGGRIVAEEEQHV | 26100 |
| HELFALYNLLYFRKLLLPRVEVIWSPRLTLCAGICELSKDPKTGKFTRIRLKL | 47000 |
| HEQKICAKYGSDVIFADNIDGGDSDEDERSTSCTCGKLRAIVARVMVAIGGDL | 48400 |
| HERLKLCNYQQAPDNIWCQYWFMGSFLVFFSNLDAVIDLPVMILLDLMPQICF | 44100 |
| HESDDFWRENASKLNEKDYEQLKLVPLHMFAPDWPLNCLLLRILVRLLSTEDP | 30700 |
| HESEESSDKKGKKKAKIEEEKEEEKEAEEEKAEEVEEAEEAEEVGEVGEEAAV | 45400 |
| HFAFESLAQTKHLERICMLSIRFVYVYAPHGEPIQLVVGFLICLLSNSPVSNG | 55200 |
| HFAGLVILGVFLMFINAIVLWPILKSFHDCKHLIKVWFFWMIYCLLFVLYIFC | 72600 |
